The text below walks through data of a protein production outcome set (Wang et al. 2014).

A short description of the data set: label from the status in PepcDB records.

For “MNEDLAVIVYTSGTTGNPKGVMITYENIKTNMEGVRAVDLVTETDVILAMLPYHHIMPLCFTLILPMYMGVPIVLLTEISSASLLKALQENRVTVILGVPRVWEMLDKAIMTKINQSSLAKFMFKMASKINSMSIRKMLFSKVHKQFGGNIRLMVSGGAKIDKNILEDFRTMGFCAIQGYGMTETAPIITFNVPGRERSDSAGLEHHHHHH”, the protein production entry is recorded as “failed”.

In the case of “MNEEQRKSTSIDILAERDKKTKDYSKYFEHVYQPPSLKEARKRGKEEVNYNDDFQIDEKYRNMGQGKTFLIKTYGCQMNAHDTEVMAGILGALGYTPTEDINHADVILINTCAIRENAENKVFSEIGNLKHLKKEKPETVIGVCGCMSQEESVVNKILKSYQNVDMIFGTHNIHRLPEILEEAYLSKAMVVEVWSKEGDVIENLPKVREGNIKAWVNIMYGCDKFCTYCIVPFTRGKERSRRPEDIIDEVRDLARQGYKEITLLGQNVNAYGKDIDGLAYGLGDLLEDISKIDIPRVRFTTSHPWDFTDRMIEVIANGGNIVPHVHLPVQSGNNAVLKIMGRKYTRESYLDLVNRIKTHIPNVALTTDIIVGYPNETDEQFEETLTLYDEVEFEHAYTYIYSQRDGTPAAKMNDNVPLDVKKDRLQQLNKKVACYSERAMQQYEGQTVQVLCEGVSKKDDTVLSGYTSKNKLVNFKAPKSMIGKIVNVYIDEAKQFSLNGTFISVNDKTVVTQLEHHHHHH”, the protein production result is “not failed”.

As for “MNEILHWKRNFFLLALGRFVSILGSSVQAVAIPLFVLDLTHSGSAVALMTVAYMVPRILFTPIAGIVGDRGDRKFLMVSMDFLRGFLICFLALLAFRNSITLPVLYVSQIAMAIMDNLFDIPTGAMFPDIVPQDFLMRANSIMGMVRIFPQILGPALGGVIYGFYGIAIVFLVNGVSFVLSAISEIFIVYSRKVEKKPAKFSQILEDLKEGFLFIWNHELIRTILIFALFLNLLISPLFMVVYPYTIREVMKFSAQEFGFLETSFTLGALLGNFLIASYLSKKNMWKAMKISIFLFELPIVFLGFLVMPDFSLNRLVLFSLFFITFLIMGFLNPIINVPLDTAFQKMTPSHIRARAFSFLILVANGVTPLGSVLYGYLVDRVPVHFLYYVVGALSFLVAVLLLVALRGKELPT”, the protein production result is recorded as “failed”. For “MNEKIEQAIREMGFKNFTEVQSKTIPLMLQGKNVVVRAKTGSGKTAAYAIPILELGMKSLVVTPTRELTRQVASHIRDIGRYMDTKVAEVYGGMPYKAQINRVRNADIVVATPGRLLDLWSKGVIDLSSFEIVIIDEADLMFEMGFIDDIKIILAQTSNRKITGLFSATIPEEIRKVVKDFITNYEEIEACIGLANVEHKFVHVKDDWRSKVQALRENKDKGVIVFVRTRNRVAKLVRLFDNAIELRGDLPQSVRNRNIDAFREGEYDMLITTDVASRGLDIPLVEKVINFDAPQDLRTYIHRIGRTGRMGRKGEAITFILNEYWLEKEVKKVSQKA”, the protein production result is “not failed”.

Regarding “MNEKIVREQRGGEDSPSSVSAKSATAAASASTASMTFASAALESHKTTTITTASSSPRTSGASASASSSSRSASAPASSSSQQEKQPMLNATDMRELREIKQLLWGDNVREDVFKRWSQGFEFSKVEPSALVQKQGGPCAVIAPVQAYLLKIIIMDLPGIKLSEISLDKSQNLLIQALCDILKNCRAPRYRIVHLLRRRGNATEAGSTKKRSPAGEEESALAGQAAGSSEEVEEAAEATPASVSKLSQALQLEHDMHQELSPDEFHERLHTLHFKNIAAVARYYMENYDQLAHTYGVLLFMYSVFLTKGLELVAADISDTSEPLIHSTYGYGGQSLINLMLTGRAVAHVWDNEQDVGGLKLRGICEQSDIGFITLMEEMRYCTVGSFFKNPRYPVWVMGSDTHLTVLFSNEKRLVSPETPSETGRRIFKSYDPEGNNFISTTMLREVLIALNLVSEPAYVALMQKRLDPENLGIILLNAFMDEFFPLESRSTPDTFELMHYNGIPGSNENNKVRYYCGTAILLEGDLKSVCTSNPMVTCLQTKWPNIEINWHDGHMPSLN”, the protein production entry is on record as “failed”.

As to “MNEKTINEQYAYIRTLLEEKRLKEALMQLESLLWQCPDWDLRTRLEQLQTSYKYMLEYMRQGANDPERWNVYRKLIADTWEIADRSRLLMLDNASSRYYHEVRRTPRPESLSAYTLKKLLHMLESFNDDLAVSGLLSDEKMDEVLKRHEETLKYMFLQTWTNSAWTPEEEEDAQSMLTSELLPVNDLCLFISAVTLSLMECFDLRKIMWLLDAYRHPDVNAGQRALVGVIFIFHIYKNRLSLYNDLVKRVDLMDEISPFKEDVARIYHQMLLCQETEKIDKKMREEIIPEMLKNVSSMRNMRFGFEENEDENDDKNPDWADAFEQSGLGDKLREMNELQLEGADVYMSTFAALKSYPFFREVQNWFYPFSKQQSDVIKQLKQEGNEKNTLLDLILQSGFFSNSDKYSLFFTIRQLPKAQQDMMLSQLGEQQVAELTEKSSAETMKKFNERPGTVSNQYLHDLYRFFKLSVRRHEFRDIFKEKLDLHHIPALSNVLYSEDILFPIADFYLKKERWNEAIEVYEEMETIGALQERGAEYYQKLGYALQKSKKYAEAIGAYLKADTLKPDNIWNNRHLAICYRLNRNYQAALSYYKKVEEATPEDTNVIFHIGSCLAELGQYEEAANYFFKLDFIESNCIKAWRGIGWCSFISRKYEQAMKYYEKIIEQKPLAIDYMNAGHVAWTMGDIQKAAALYGKSITANGNRERFLEMFRKDEEALLKQGIQEEDIPLMLDLL”, the protein production result was “failed”. In the case of “MNEKTLHLDKKSAVVGGLNLSQTKIFGTPLPLFLFLLLTVLAAHFTDTLPSGLVGGFAFMFVIGAIFGEVGKRLPIFNKYIGGAPVMIFLVAAWFVHMGWLSDREIKTVTEVMDKSKFLDLFIAVLITGSILAVNRKLLIRSLAGYIPTILAAVAGAAVFGIAIGLVFGITPDRIMMLYVLPIMGGGNGAGAIPLSEIYESVTGGSKEQYYSVAIAILTIANIVAIVAAAVINIIGEKIPSLTGNGELVRSSKLDVSEEAKNLTVTHREIAIGLMLAACVYTFSYALSKEILPGFGSIQIHTFAYMVVIIAILNAAGLCSDEIKEGAKRLSNFFSKQMLWLLMVGVGIAYTDLAEIINALTFANVIIATVIVLGAIIGAALGGWAMGFYPVEASITAGLCMANRGGSGDLEVLAASNRMSLLSYAQISSRLGGGIVLVIASVVFGMFV”, the protein production result was “failed”. Take “MNELILLRQLAENQQYPSLLELAQSLWYDSGNPAVLPLLATANAHMGLKENTQALYQQSLKHFDVLDVDARCDLAVVLIVMQRIDDAIKMLSDILMEQGNHALALARLAYCYLASGRLAEAQHFFEKSLIITPERFIVHRNLVAVYIAQNELNQAQKQLDSATEVLVNYHKVGDPLYQQYWFQLNTTQLQLWVVQGLFCPAEEWLTQLSVRQQAGDYDEAVLVQYVKSYSQVLAEKNFHQQATNILREYLKQYNNNVELCMALAELAQVQGHFMQAISLLQKALKKDEGNSDLWVQLSTACLHRFDKKARKAAVRAVSLAEALEITDEQSLVLIKMKQAQANNALAEVECQEQNFEVSEKLYRDILAEHSHFLPALQGLGQQQMQQGNIDEAVALFERIKDIDLLKGCSALINVRRFPDDVEALDKMAIAANKPSMEGSLRAGILFQLAAAWEKKKDYNKAFRFAEQANNASKKFLSYNAQKHREDCARLRACFNKTLYQHRPNYGIESTIPVYVLGMPRSGTTLVEQILSGHSDIFGAGELGVIPQVIQGINRWERHTGSGRQYPDCIDDFNADTIAGIANNMLKELQELAAETKPESKYVVDKMPHNFENIGLIKFLFPNAKIISVRRDPRDIAMSNYFTDYQAKHGGMGFAYDLEHIGEQLADHNLLMHHWQQTFPDEILEINYEDVVDDIEGCARKMLSYIGVNWQPKVLKFNELVRTVKTASVWQVRQPIYKTSKGKWLRYQTRLTPLIKGTNAKIVSHPITDLLTLPEPGFLTDGVALYKEGKLDDAEMCFKKMLHHNPGHAACHYMIGLVYLTKNHAQDGIRHFEKAVASCPWQKEWRQNLLKAYEQEGETNKIAAFKKGNQRTTANDANNAVTYDEHFTSDAFTTKTTVSQ”: the protein production entry was “failed”. As for “MNENEQKAGSVADQKSKIRERYKGIDPDELDVIPALPQEDIFAVENEQRVAVYARVSTDDPRQTSSYELQKNHYHDVISKSPNWKLVQIYADEGISGTSLQHRDQFKLMIEDCKKGQIDLIVTKSVSRFARNVVDCIGYVRELLSLPHPVGVFFETERLNTFDPKSEMVLSFMATLAQEESHTKSEIMNASIEMRFRRGIFLTPILLGYDHDEDGNLIINEGEAKIVKLIFMMYLNGCTCQEIADTLTELGCETKKGNTVWSPGSILQILQNERHCGDVLAHKTYTPNYLNHKSKKNMQNRPQYRKRDHHEAIISRDDFIAVQRLISNAKYGNKGILPQLKVIPGGVLKGFVSINPRWAGFKETDYMNASSSVYDGTEQSGPSSGHVEVKSGEFDLRGYEIARSQFFDSTDRITVTFSQGDIRFSAPAVRKLDSTLVELLIHPKKLVFAVRNAGKDCRNAMQWSKKKDGKNSPREISGTAFLPTLYSLLGWNDDCRYRITGVKRGSGNDAVLLFNLSEPEIFIPNDMVGAPDADPAVKPFTDNQQRNVRAYPPDWADTFGSNYYSHAQAEELAGFTGRKDPDTSHAPVTYNDTDIQVTSKNDIEKNIKQIMSDMKENTDEHTDKR”, the protein production result is on record as “failed”.

For the sequence “MNEQPNNETLIQSSSRDLQIIEDDAFSYEGYQVVRGEFFAHTYEPSFTFNANKVSVNTACIKKLPKTDFVQILVNPDEKKLAVRPCQEDEKDSFRWCSATKKRSPRQITCRIFFAKVITLMGWNSSYRYKLLGKLIRSDNELLFVFDLTTPEIYVRTAKDDGKIKTSRTPTYPAEWQNQFGVPVEEHQSNLQINMFDGYAVFGISENTPPEEPKNPAEPQKEETHYEQSSLFTANPMH”, the protein production entry is reported as “failed”.

Consider “MNEVKESLRSIEQKYKLFQQQQFTFIAALEHCRENAHDKIRPISSIEQVQSYMEHYCNNSTHRRILIMFMDICSELSKLCQHFEALHSGTPVTNSLLEKCKTLVSQSNDLSSLRAKYPHEVVNHLSCDEARNHYGGVVSLIPIVLDFMKEWIAHSEKLPRKVLQHGTT”, for which the protein production entry is “failed”. As to “MNFEAIKSIYLFEMARTRRTLLQSVVSPVISTSLYFIVFGTAIGSRIQEVGGVSYGAFITPGLIMLTLLTQCISNGSFGIYFPKFTGTVYEILSAPVSMTEIVAGYVGAAATKGLMIGTIILITASFFVDITIAHPFMMVLFFVLTAVSFSLFGFIIGIWATNFEQLNLIPMLVVPPLTFLGGSFYSIDMLPPFWQTVSHFNPVLYLISGFRWSFYEIADVNPVISLAMITLFLAVCLGVVAWMFKTGYRLRN”, the protein production result is given as “failed”.

Turning to “MNFLPPTPPPPDPVGWKLPRGSLARHLVLRLMPPLLLLVLLDLAATWVITHKIDMSIWMLEDFFWLMVVGQIVLIALFTGVIIRGVRSGLRSVNHLAEEIRQRSIDDMQPMEVAGLPAEIAPLVTHINDLLGRLDASLAAQRRFIGHAAHQLRTPLSGLRLESELMLARPLPEDVRMRAERIKAVSDRMIRLGQQLLVMARADPDARPQDRFIRLDLCEWVRASGAEWIPRVRAAQAEIDLVAPEQPVWIDGDPLLLDEMLGNLIDNALRYGKPRGRICLTIDVNPPALIIEDDGPGISPQERDSVFEAFYRAPDAKAGGSGLGLAIVREIAHAHGAWWKLSSRPEYAGTRLSVVFPGPRIGTQLTRQERAS”, the protein production entry is listed as “failed”. Consider “MNFNWFLMLFLFNFSVLLGSDTTALGHYQRANEYYLSKRYYDAIDELVEAIKINPNYYEAYKFIASIYYSLKIYTQAQFFIEKASKMSNEDTEYKILYANILLKNDKIDQAKKIYSEVLVKQRNNIDALVGLASIFEKNGLFIAAANYYLSILDYSQNNYSAFEHLIDIYQRLGMHDKIRHLINKVRVNFLSFPDFHKRVAEFYISINNLGLAEKYALNYLALIESSYKDFGVVDAYRLLALVYLHEFKYEDAIEALQKAILVNKDSDELYYLLGYSYLRFGDIEKAILNLERAKNLKKDLEFYNIALEESFFASNFRNFLKNNSNARISKHYENEGLKAFKSLNLNKALFNAKNAVDIWPDNDSARFLLSKIYKLMNLDIMAYEQLFYLAKQRNSTDSRILDFYDVVSFDVRKSLFYKYGYKSIADFNKLYDDRVVYKMAIFTQSENKFFGANDLILRYAERVLERNLNMEIVNYNFDYNKNRDYLINNFSEGFSYSRNNNLDLFLIFDFKADILKNTATLVVNIFSGKTGIKLVSFSYDVGGVNYLSNALNSLSKDFHDYLPKKGKILQIKNDDALINLGQVNGVVKGDVFLILKEGALNSDTRDSGFIVYKKSDILGEILIEDISDYISRGIVKSSTFLKDYVQEGATVLIKR”, for which the protein production entry is “failed”.
